According to patent EP2182008A2:
Values belong to the substance of their own block, whether it stands above or below them.

Key:
[1] = target: T1, VCAM-1/IgG1 fusion protein (seven extracellular immunoglobulin-like domains) (UniProt P19320); test: ELISA, Iαd/IgG4 on immobilized CAM/IgG, detection with anti-IgG4 HP6023
T1 sequence (looked up): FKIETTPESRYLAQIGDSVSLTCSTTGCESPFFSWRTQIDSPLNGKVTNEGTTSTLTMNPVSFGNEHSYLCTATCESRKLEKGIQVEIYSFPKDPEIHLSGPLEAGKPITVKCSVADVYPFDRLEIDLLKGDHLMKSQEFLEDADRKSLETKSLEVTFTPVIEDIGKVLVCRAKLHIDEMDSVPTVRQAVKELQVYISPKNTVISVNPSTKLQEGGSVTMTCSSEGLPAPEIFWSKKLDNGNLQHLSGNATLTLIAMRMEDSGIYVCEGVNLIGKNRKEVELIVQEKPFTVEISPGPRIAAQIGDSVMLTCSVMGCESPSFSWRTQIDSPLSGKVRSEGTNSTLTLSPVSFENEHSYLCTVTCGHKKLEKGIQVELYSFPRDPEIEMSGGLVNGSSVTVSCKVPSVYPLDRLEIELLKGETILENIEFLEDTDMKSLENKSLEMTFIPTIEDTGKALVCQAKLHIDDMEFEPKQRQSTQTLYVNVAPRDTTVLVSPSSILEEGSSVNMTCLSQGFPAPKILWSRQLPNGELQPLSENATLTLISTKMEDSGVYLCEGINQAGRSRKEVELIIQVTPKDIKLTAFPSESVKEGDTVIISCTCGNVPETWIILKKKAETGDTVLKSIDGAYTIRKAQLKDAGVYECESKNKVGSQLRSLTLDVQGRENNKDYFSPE

[2] = target: mutant two domain VCAM-1 fused to human immunoglobulin Fc (substitution at residue 40) (human) (UniProt P19320); test: adhesion of transfected CHO cells to immobilized CAM, crystal violet, A570
[3] = target: recombinant VCAM-1 (commercial preparation, R & D Systems) (UniProt P19320); test: cell-based or functional assay
[4] = target: LFA-1 leucine zipper fusion protein (UniProt P20701); test: ELISA, plate format; sentence unclear
[5] = target: immobilized CD11b/CD18 (human) (UniProt P05107); test: ELISA, plate format; sentence unclear
[6] = target: soluble ICAM-R/IgG1 fusion protein (UniProt P32942); test: ELISA, soluble integrin in supernatant on immobilized ICAM/Ig
Sequence of soluble ICAM-R/IgG1 fusion protein (P32942 30-485 limits assumed): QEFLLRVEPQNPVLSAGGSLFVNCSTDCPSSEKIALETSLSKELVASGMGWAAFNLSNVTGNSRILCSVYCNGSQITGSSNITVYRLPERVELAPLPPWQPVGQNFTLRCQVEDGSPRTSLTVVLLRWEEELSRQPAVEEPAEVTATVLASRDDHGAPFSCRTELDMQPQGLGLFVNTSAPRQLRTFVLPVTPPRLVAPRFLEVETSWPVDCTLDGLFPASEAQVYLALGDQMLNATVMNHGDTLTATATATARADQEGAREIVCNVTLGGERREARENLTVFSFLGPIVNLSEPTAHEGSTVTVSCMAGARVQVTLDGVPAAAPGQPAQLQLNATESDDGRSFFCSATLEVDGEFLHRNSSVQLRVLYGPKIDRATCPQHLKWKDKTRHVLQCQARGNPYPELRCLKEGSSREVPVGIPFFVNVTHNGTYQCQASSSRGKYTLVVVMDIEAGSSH

Sequence of human αd I domain/IgG4 fusion protein (P01861 other isoform, or with tags, fused parts or gaps): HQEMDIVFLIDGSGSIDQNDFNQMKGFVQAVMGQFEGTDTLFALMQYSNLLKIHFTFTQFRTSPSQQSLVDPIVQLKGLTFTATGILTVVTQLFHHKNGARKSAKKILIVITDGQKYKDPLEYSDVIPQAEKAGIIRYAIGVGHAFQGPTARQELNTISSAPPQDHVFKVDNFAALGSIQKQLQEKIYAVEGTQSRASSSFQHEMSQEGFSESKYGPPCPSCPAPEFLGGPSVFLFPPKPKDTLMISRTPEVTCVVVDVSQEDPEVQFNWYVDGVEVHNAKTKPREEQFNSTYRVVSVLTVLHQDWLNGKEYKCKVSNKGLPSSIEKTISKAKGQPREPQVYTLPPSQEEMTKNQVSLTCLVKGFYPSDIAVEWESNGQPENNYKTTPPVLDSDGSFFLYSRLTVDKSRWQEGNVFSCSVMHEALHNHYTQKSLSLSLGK

fold higher than background [1]: 7 to 10 fold
Substance: human αd I domain/IgG4 fusion protein (from UniProt P01861 99-327) (Fc fusion)

binding as percent of that with wild-type VCAM-1 [2]: 50%
Substance: human αd/CD18 expressed on transfected cells (from UniProt P05107 23-769) (receptor)

binding rate of IL-5 cultured eosinophils to immobilized VCAM-1 [3]: 28.8%
binding rate of IL-5 cultured eosinophils to immobilized VCAM-1 in the presence of a monoclonal antibody against α4 [3]: 18.1%
binding rate of IL-5 cultured eosinophils to immobilized VCAM-1 in the presence of an anti-CD18 monoclonal antibody [3]: 17.1%
Substance: native human αd/CD18 on human cells (from UniProt Q13349 18-1161; P05107 23-769) (receptor)

fold greater than background binding [4]: 5 fold
fold greater than background binding [5]: 15 fold
fold over control well containing no antibody [6]: 10 fold
Substance: soluble human αd/CD18 leucine zipper heterodimer (from UniProt P05107 23-700) (receptor)
